Laboratory results reported in patent publication US9127040B2, “Regulation of sodium channels by PLUNC proteins” (The University of North Carolina at Chapel Hill, priority 2011, dated 2015).

How the values were obtained:
α, β and γENaC subunits = target: T1, α, β and γENaC subunits (Rattus norvegicus, UniProt P37089+P37090+P37091); assay: Co-immunoprecipitation of V5-tagged SPLUNC1 with HA-tagged ENaC subunits in Xenopus oocytes; format: binding; details: V5-tagged SPLUNC1, anti-HA immunoprecipitation
T1 construct: expressed in transfected cells; host or cells: Xenopus oocytes (cRNA injection; with or without V5-SPLUNC1 and CAP2)
T1 sequence (P37089 1-698): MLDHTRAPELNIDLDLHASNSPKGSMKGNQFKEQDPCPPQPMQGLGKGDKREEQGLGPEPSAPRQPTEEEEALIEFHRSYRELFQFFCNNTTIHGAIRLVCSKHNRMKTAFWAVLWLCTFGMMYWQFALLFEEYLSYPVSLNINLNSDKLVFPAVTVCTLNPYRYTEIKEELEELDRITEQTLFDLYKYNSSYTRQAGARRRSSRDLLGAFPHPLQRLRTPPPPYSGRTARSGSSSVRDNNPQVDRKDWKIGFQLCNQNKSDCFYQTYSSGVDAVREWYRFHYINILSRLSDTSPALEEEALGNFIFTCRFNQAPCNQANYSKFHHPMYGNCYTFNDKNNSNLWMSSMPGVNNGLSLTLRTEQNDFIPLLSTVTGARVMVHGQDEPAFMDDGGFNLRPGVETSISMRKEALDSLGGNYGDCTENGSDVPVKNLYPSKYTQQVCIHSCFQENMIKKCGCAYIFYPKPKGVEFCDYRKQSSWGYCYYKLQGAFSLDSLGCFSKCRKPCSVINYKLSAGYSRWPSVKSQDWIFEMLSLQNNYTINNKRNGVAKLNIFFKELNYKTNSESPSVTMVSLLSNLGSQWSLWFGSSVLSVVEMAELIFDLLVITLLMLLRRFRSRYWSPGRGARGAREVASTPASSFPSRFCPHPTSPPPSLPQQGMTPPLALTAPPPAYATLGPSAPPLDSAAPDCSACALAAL
T1 sequence (P37090 1-638): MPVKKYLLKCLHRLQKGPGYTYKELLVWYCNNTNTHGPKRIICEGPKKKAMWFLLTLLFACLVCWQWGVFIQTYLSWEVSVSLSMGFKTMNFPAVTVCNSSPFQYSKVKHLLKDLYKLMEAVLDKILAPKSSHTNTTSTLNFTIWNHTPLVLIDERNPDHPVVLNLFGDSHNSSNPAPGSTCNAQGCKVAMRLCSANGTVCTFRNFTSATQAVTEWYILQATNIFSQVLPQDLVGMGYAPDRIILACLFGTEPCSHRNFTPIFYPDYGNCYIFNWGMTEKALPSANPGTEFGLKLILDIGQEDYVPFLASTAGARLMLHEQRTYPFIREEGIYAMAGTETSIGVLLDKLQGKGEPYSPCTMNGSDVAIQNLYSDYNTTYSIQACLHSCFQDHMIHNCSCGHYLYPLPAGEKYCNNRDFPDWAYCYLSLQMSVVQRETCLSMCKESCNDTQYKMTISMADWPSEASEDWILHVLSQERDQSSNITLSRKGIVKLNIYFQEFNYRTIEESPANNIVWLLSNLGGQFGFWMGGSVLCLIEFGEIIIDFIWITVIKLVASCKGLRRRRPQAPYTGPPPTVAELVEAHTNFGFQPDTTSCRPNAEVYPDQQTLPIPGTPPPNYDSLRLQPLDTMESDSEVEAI
T1 sequence (P37091 1-650): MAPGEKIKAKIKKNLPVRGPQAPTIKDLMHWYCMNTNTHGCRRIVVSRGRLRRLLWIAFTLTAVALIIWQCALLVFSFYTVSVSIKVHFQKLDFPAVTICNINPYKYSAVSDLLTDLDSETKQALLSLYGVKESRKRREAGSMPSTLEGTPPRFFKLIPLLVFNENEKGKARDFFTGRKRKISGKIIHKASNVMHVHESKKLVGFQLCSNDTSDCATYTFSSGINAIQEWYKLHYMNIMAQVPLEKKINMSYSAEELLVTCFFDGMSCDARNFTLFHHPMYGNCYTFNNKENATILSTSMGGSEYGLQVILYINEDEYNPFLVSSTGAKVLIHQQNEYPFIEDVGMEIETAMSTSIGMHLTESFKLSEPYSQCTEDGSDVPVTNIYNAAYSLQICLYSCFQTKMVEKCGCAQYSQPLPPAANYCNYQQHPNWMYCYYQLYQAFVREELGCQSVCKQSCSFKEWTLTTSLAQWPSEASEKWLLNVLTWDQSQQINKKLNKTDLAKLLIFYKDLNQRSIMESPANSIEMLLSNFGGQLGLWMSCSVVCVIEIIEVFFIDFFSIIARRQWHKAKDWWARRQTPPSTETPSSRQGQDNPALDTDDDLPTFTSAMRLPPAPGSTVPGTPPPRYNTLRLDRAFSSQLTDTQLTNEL
Method: Xenopus oocytes were injected with either HA-N-Terminus or V5-C-Terminus (HA-NT/V5-CT) tagged subunits in combination with wild type (WT) untagged rat αβγENaC subunits (0.3 ng cRNA each) with or without V5-tagged SPLUNC1 and CAP2 (1 ng cRNA each). After 24 h, 40 eggs per experimental condition were lysed with buffer containing (in mM): 20 Tris, 50 NaCl, 50 NaF, 10 β-glycerophosphate, 5 Na4P2O7 pyrophosphate, 1 EDTA, pH 7.5 and protease inhibitors (complete, Roche), aprotinin (Sigma). Cell lysates were prepared by passing the eggs through a 27G1/2 needle twice and by centrifugation at 3,600 rpm for 10 minutes at 4° C. Supernatants were transferred to new tubes and samples were spun at 14,000 rpm for 20 minutes at 4° C. Supernatants were discarded and pellets were solubilized in (mM) 50 Tris, 100 NaCl, 0.1% Triton X-100, 0.1% NP-40, 20 NaF, 10 Na4P2O7, 10 EDTA+protease inhibitor cocktail (Sigma), pH 7.5. Total inputs were taken from whole cell samples representing 4% of total protein. Solubilized proteins were incubated with 50 μl of protein A and 5 μl of anti-HA antibody (Covance) overnight while tumbling at 4° C. Samples were washed three times with (mM) 150 NaCl 50 Tris pH 7.5 buffer. Laemmli buffer was added and samples were loaded on a 15% gradient Tris-glycine gel after incubation for 10 minutes at 96° C. […]

trypsin = assay: Cell-free fluorogenic assay, trypsin cleavage of BGAR-MCA; format: biochemical; details: 50 ng/ml rSPLUNC1 or 2 U/ml aprotinin; 1.0 or 0.3 U/ml trypsin
Method: For cell-free assays, reactions were carried out in 50 μl Ringer in a 96 well plate format with 100 μM BGAR-MCA. To measure endogenous protease activity in human bronchial epithelial cultures, 30 μl Ringer with 100 μM BGAR-MCA were placed directly onto the mucosal surfaces of human bronchial epithelial cultures grown on 12 mm T-clear inserts and the cultures were assayed in 12 well plates.

B1: SPLUNC1: human SPLUNC1 (SEQ ID NO:1), 256 amino acid secreted PLUNC family protein; rSPLUNC1 is the purified V5/6His-tagged recombinant form (protein, listed as Homo sapiens)
chain: MFQTGGLIVFYGLLAQTMAQFGGLPVPLDQTLPLNVNPALPLSPTGLAGSLTNALSNGLLSGGLLGILENLPLLDILKPGGGTSGGLLGGLLGKVTSVIPGLNNIIDIKVTDPQLLELGLVQSPDGHRLYVTIPLGIKLQVNTPLVGASLLRLAVKLDITAEILAVRDKQERIHLVLGDCTHSPGSLQISLLDGLGPLPIQGLLDSLTGILNKVLPELVQGNVCPLVNEVLRGLDITLVHDIVNMLIHGLQFVIKV
modifications: V5/6His tag in recombinant form
notes: rSPLUNC1 is the purified V5/6His-tagged recombinant form
- binding to ENaC subunits (co-immunoprecipitation) (α, β and γENaC subunits): bound to all three ENaC subunits
- inhibition of trypsin cleavage of fluorogenic substrate BGAR-MCA (trypsin): ~10%
